This data set relates to GST-Co-NF-kB RHD-only (Capsaspora owczarzaki). The data set is described as follows: PBM. Conditions: ~300 nM protein; EMSA: 10 mM HEPES pH 7.8, 50 mM KCl, 1 mM DTT, 1 mM EDTA, 4% glycerol, 40 ug/ml poly-dI-dC, 2X BSA, 50 ug 293T extract, 30 C 30 min; PBM: 6 mM HEPES pH 7.8 …. (In EMSA bound probe runs differently from free probe, usually more slowly.)
“CCGATTAACATCAAGGAATTCCCTGATGTTAATCGG (double strand) [PBM probe AGGAATTCCC]” yielded a binding signal of 4.22 PBM z-score.

Regarding “CCGATTAACATCACGGAATTCCCTGATGTTAATCGG (double strand) [PBM probe CGGAATTCCC]”, the binding signal came out at 3.4 PBM z-score.

“CCGATTAACATCAGGGAATTCCCTGATGTTAATCGG (double strand) [PBM probe GGGAATTCCC]” yielded a binding signal of 7.25 PBM z-score.

For “CCGATTAACATCAGGAATTCCCCTGATGTTAATCGG (double strand) [PBM probe GGAATTCCCC]”, the binding signal was 7.64 PBM z-score.

“CCGATTAACATCAGGAATTCCCATGATGTTAATCGG (double strand) [PBM probe GGAATTCCCA]” registered a binding signal of 4.61 PBM z-score.

Source of the values: article PMC8677719.
